Key:
[1] = system: azocasein; experiment: Stability of Me-trypsin, trypsin and pancreatin in a disinfecting composition (Example 5C), azocasein method; format: physicochemical; settings: for % Activity Remaining: Example 5C composition, 50 μg/ml (pancreatin 375 μg/ml)
Method: Azocasein Method The following solutions are used in this assay: 1) Buffer solution: 0.05 M sodium phosphate buffer containing 0.9% sodium chloride, pH 7.6. 2) Substrate solution: 2 mg/ml azocasein in the buffer solution mentioned above. The assay is initiated by mixing 1 ml of an appropriately diluted (such that the enzyme activity is in the range of standard curve) enzyme composition in phosphate buffer with 2 ml of azocasein substrate solution (2 mg/ml). After incubation at 37° C. for 20 minutes, the mixture is removed from the incubator and 1 ml of trichloroacetic acid to (14% w/v) is added to stop the enzyme reaction. The mixture is vortexed well and allowed to stand at room temperature for 20 minutes. After centrifuging at 2500 rpm (with a Beckman GS-6R Centrifuge) for 15 minutes, the supernatant is filtered with a serum sampler. 2 ml of the clear yellow filtrate is then adjusted to a neutral pH with 2 ml of 0.5 N sodium hydroxide and the absorbance of 440 nm wavelength light is measured with a spectrophotometer. The amount of azocasein hydrolyzed is calculated based on a standard curve of known concentrations of azocasein solution developed under identical conditions. An enzyme activity unit (“AZ U”) is defined as that amount of enzyme which hydrolyzes 1 μg of azocasein substrate/minute at 37° C. The following is an example of the stability of Me-trypsin in a disinfecting composition of the present invention as compared to analogous compositions containing trypsin or pancreatin. The enzymes were solubilized in the Example 5C composition. The compositions were stored at room temperature or 30° C. for up to 42 days. At various time points, enzyme activity was assayed using the azocasein method.

[2] = system: lysozyme deposits; experiment: Cleaning efficacy on lysozyme-deposited contact lenses, fluorescence method; settings: for Lysozyme, Total: hydrolysate plus ACN/TFA extract; for Lysozyme, ACN/TFA Extract: lens extract after overnight cleaning at room temperature; for % Cleaning Efficacy: overnight soak at room temperature, no rubbing; for Lysozyme, Hydrolysate: soaking solution after overnight cleaning at room temperature
Method: The following example illustrates the cleaning efficacy of a multi-purpose composition (Example 6) of the present invention. The cleaning efficacy was determined using the following protocol. 1. Physiological/Thermal Combination Model Each lens was first soaked in a 5 ml lysozyme solution (native or C14-labeled, 1.0 mg/ml in 0.05M phosphate buffer containing 0.9% sodium chloride, pH 7.4) at 37° C. for 24 hours, then removed to a saline solution (2 ml) and heated at 90° C. for 15 minutes. 2. Cleaning and Assessment of Lysozyme Deposits Each deposited lens was placed in a 5 ml of a test solution and agitated in a rotary shaker at room temperature overnight (usually >12 hours). The compositions tested were: 1) the Example 6 composition (Me-trypsin), 2) 1 drop of Example 3B (except Me-trypsin was replaced by trypsin) in 5 mL of the Example 2B composition and 3) 1 drop of Supraclens® Daily Protein Remover (pancreatin) in 5 mL of the Example 2B composition. After rinsing the lens by dipping three times in three consecutive 40 ml saline solution, the lens was subjected to extraction with 5 ml ACN/TFA solution (acetonitrile/trifluoroacetic acid/water: 500/1/500 v/v) for at least 2 hours. No mechanical rubbing was applied to the cleaning regimen. Both the extract and the soaking solution were then assessed for lysozyme by the protein intrinsic fluorescence method using a fluorescence spectrophotometer (excitation wavelength is 280 nm, emission wavelength is 354 nm), or by a scintillation counter for the C14-lysozyme. The quantification of lysozyme was based on a lysozyme standard curve established using the same vehicle and instrumental setting used for the lens extract and lens soaking solution. The results are show in Tables 9-10.

[3] = system: azocasein; experiment: Stability of Me-trypsin in the Example 2A composition, azocasein method; format: physicochemical
Method: Azocasein Method The following solutions are used in this assay: 1) Buffer solution: 0.05 M sodium phosphate buffer containing 0.9% sodium chloride, pH 7.6. 2) Substrate solution: 2 mg/ml azocasein in the buffer solution mentioned above. The assay is initiated by mixing 1 ml of an appropriately diluted (such that the enzyme activity is in the range of standard curve) enzyme composition in phosphate buffer with 2 ml of azocasein substrate solution (2 mg/ml). After incubation at 37° C. for 20 minutes, the mixture is removed from the incubator and 1 ml of trichloroacetic acid to (14% w/v) is added to stop the enzyme reaction. The mixture is vortexed well and allowed to stand at room temperature for 20 minutes. After centrifuging at 2500 rpm (with a Beckman GS-6R Centrifuge) for 15 minutes, the supernatant is filtered with a serum sampler. 2 ml of the clear yellow filtrate is then adjusted to a neutral pH with 2 ml of 0.5 N sodium hydroxide and the absorbance of 440 nm wavelength light is measured with a spectrophotometer. The amount of azocasein hydrolyzed is calculated based on a standard curve of known concentrations of azocasein solution developed under identical conditions. An enzyme activity unit (“AZ U”) is defined as that amount of enzyme which hydrolyzes 1 μg of azocasein substrate/minute at 37° C. […] At the appointed time, aliquots were tested for enzyme activity by the azocasein method. Activity levels were compared with initial levels and expressed as percent remaining activity.

**Q.** How did the “% Activity Remaining” value ([1]; 30° C., 1 day) turn out when “Trypsin [Native Trypsin, reference compound]” was run?
**A.** 90.8%

**Q.** What about the “% Activity Remaining” value ([1]; 30° C., 2 days) of the same substance?
**A.** 78.7%

**Q.** And the “% Activity Remaining” value ([1]; 30° C., 5 days)?
**A.** 66.7%

**Q.** And the “% Activity Remaining” value ([1]; 30° C., 7 days)?
**A.** 62.4%

**Q.** And the “% Activity Remaining” value ([1]; 30° C., 14 days)?
**A.** 52.4%

**Q.** What about the “% Activity Remaining” value ([1]; RT, 1 day) of the same substance?
**A.** 102.5%

**Q.** And the “% Activity Remaining” value ([1]; RT, 2 days)?
**A.** 101.5%

**Q.** What about the “% Activity Remaining” value ([1]; RT, 5 days) of the same substance?
**A.** 98.5%

**Q.** And the “% Activity Remaining” value ([1]; RT, 7 days)?
**A.** 93.6%

**Q.** What about the “% Activity Remaining” value ([1]; RT, 14 days) of the same substance?
**A.** 85.7%

**Q.** And the “% Activity Remaining” value ([1]; RT, 21 days)?
**A.** 79.6%

**Q.** What about the “% Activity Remaining” value ([1]; RT, 28 days) of the same substance?
**A.** 74.4%

**Q.** And the “% Activity Remaining” value ([1]; RT, 35 days)?
**A.** 73.8%

**Q.** What about the “% Activity Remaining” value ([1]; RT, 42 days) of the same substance?
**A.** 61.3%

**Q.** What about the “Lysozyme, Total” value [2] of the same substance?
**A.** 317.40 μg/Lens

**Q.** What about the “Lysozyme, ACN/TFA Extract” value [2] of the same substance?
**A.** 83.92 μg/Lens

**Q.** And the “% Cleaning Efficacy” value [2]?
**A.** 73.6%

**Q.** And the “Lysozyme, Hydrolysate” value [2]?
**A.** 233.45 μg/Lens

**Q.** For methyl trypsin [Me-Trypsin], which “% Activity Remaining” value ([1]; 30° C., 1 day) is on record?
**A.** 99.7%

**Q.** And the “% Activity Remaining” value ([1]; 30° C., 2 days)?
**A.** 97.8%

**Q.** And the “% Activity Remaining” value ([1]; 30° C., 5 days)?
**A.** 96.1%

**Q.** What about the “% Activity Remaining” value ([1]; 30° C., 7 days) of the same substance?
**A.** 93.5%

**Q.** And the “% Activity Remaining” value ([1]; 30° C., 14 days)?
**A.** 91.8%

**Q.** And the “% Activity Remaining” value ([1]; 30° C., 21 days)?
**A.** 86.7%

**Q.** What about the “% Activity Remaining” value ([1]; 30° C., 28 days) of the same substance?
**A.** 82.7%

**Q.** And the “% Activity Remaining” value ([1]; 30° C., 35 days)?
**A.** 80.0%

**Q.** What about the “% Activity Remaining” value ([1]; 30° C., 42 days) of the same substance?
**A.** 76.3%

**Q.** What about the “% Activity Remaining” value ([1]; RT, 1 day) of the same substance?
**A.** 100.9%

**Q.** What about the “% Activity Remaining” value ([1]; RT, 2 days) of the same substance?
**A.** 100.8%

**Q.** What about the “% Activity Remaining” value ([1]; RT, 5 days) of the same substance?
**A.** 97.9%

**Q.** What about the “% Activity Remaining” value ([1]; RT, 7 days) of the same substance?
**A.** 99.4%

**Q.** What about the “% Activity Remaining” value ([1]; RT, 14 days) of the same substance?
**A.** 100.0%

**Q.** What about the “% Activity Remaining” value ([1]; RT, 21 days) of the same substance?
**A.** 98.5%

**Q.** What about the “% Activity Remaining” value ([1]; RT, 28 days) of the same substance?
**A.** 96.6%

**Q.** And the “% Activity Remaining” value ([1]; RT, 35 days)?
**A.** 96.5%

**Q.** What about the “% Activity Remaining” value ([1]; RT, 42 days) of the same substance?
**A.** 94.0%

**Q.** What about the “stability in a disinfecting composition over analogous compositions containing trypsin or pancreatin” value ([1]; summary of Table 2) of the same substance?
**A.** superior stability

**Q.** What about the “Percent Remaining Activity” value ([3]; 40° C., 1 week) of the same substance?
**A.** 100%

**Q.** What about the “Percent Remaining Activity” value ([3]; 40° C., 2 weeks) of the same substance?
**A.** 100%

**Q.** What about the “Percent Remaining Activity” value ([3]; 40° C., 4 weeks) of the same substance?
**A.** 93.7%

**Q.** And the “Percent Remaining Activity” value ([3]; 40° C., 6 weeks)?
**A.** 100%

**Q.** What about the “Percent Remaining Activity” value ([3]; 40° C., 8 weeks) of the same substance?
**A.** 100%

**Q.** And the “Percent Remaining Activity” value ([3]; 40° C., 12 weeks)?
**A.** 100%

**Q.** And the “Percent Remaining Activity” value ([3]; 45° C., 1 week)?
**A.** 100%

**Q.** What about the “Percent Remaining Activity” value ([3]; 45° C., 2 weeks) of the same substance?
**A.** 100%

**Q.** And the “Percent Remaining Activity” value ([3]; 45° C., 4 weeks)?
**A.** 92.7%

**Q.** And the “Percent Remaining Activity” value ([3]; 45° C., 6 weeks)?
**A.** 97.8%

**Q.** What about the “Percent Remaining Activity” value ([3]; 45° C., 8 weeks) of the same substance?
**A.** 100%

**Q.** What about the “Percent Remaining Activity” value ([3]; 45° C., 12 weeks) of the same substance?
**A.** 97.6%

**Q.** And the “Percent Remaining Activity” value ([3]; 50° C., 1 week)?
**A.** 91.8%

**Q.** And the “Percent Remaining Activity” value ([3]; 50° C., 2 weeks)?
**A.** 91.8%

**Q.** And the “Percent Remaining Activity” value ([3]; 50° C., 4 weeks)?
**A.** 82.4%

**Q.** What about the “Percent Remaining Activity” value ([3]; 50° C., 6 weeks) of the same substance?
**A.** 81.3%

**Q.** And the “Percent Remaining Activity” value ([3]; 50° C., 8 weeks)?
**A.** 75.2%

**Q.** And the “Percent Remaining Activity” value ([3]; 50° C., 12 weeks)?
**A.** 71.5%

**Q.** What about the “Percent Remaining Activity” value ([3]; 55° C., 1 week) of the same substance?
**A.** 82.1%

**Q.** And the “Percent Remaining Activity” value ([3]; 55° C., 2 weeks)?
**A.** 75.3%

**Q.** What about the “Percent Remaining Activity” value ([3]; 55° C., 4 weeks) of the same substance?
**A.** 46.5%

**Q.** And the “Percent Remaining Activity” value ([3]; RT, 1 week)?
**A.** 100%

**Q.** What about the “Percent Remaining Activity” value ([3]; RT, 2 weeks) of the same substance?
**A.** 100%

**Q.** What about the “Percent Remaining Activity” value ([3]; RT, 4 weeks) of the same substance?
**A.** 94.1%

**Q.** And the “Percent Remaining Activity” value ([3]; RT, 6 weeks)?
**A.** 100%

**Q.** And the “Percent Remaining Activity” value ([3]; RT, 8 weeks)?
**A.** 100%

**Q.** What about the “Percent Remaining Activity” value ([3]; RT, 12 weeks) of the same substance?
**A.** 100%

**Q.** What about the “Lysozyme, Total” value [2] of the same substance?
**A.** 274.35 μg/Lens

**Q.** And the “Lysozyme, ACN/TFA Extract” value [2]?
**A.** 72.90 μg/Lens

**Q.** What about the “% Cleaning Efficacy” value [2] of the same substance?
**A.** 73.4%

**Q.** What about the “Lysozyme, Hydrolysate” value [2] of the same substance?
**A.** 201.45 μg/Lens

Reference: patent US6358897B1, “Alkyl trypsin compositions and methods of use in contact lens cleaning and disinfecting systems” (Alcon Laboratories, Inc., priority 1996, dated 2002)
